In patent CN114426577A (CHINESE DISEASE PREVENTION AND CONTROL CENTER FOR …, dated 2022):

Assays:
[1] = target: SARS-Cov-2 Omicron变异株的生物素化RBD(South Africa/CERI-KRISP-K032195/2021) (SARS-CoV-2 Omicron variant, UniProt P0DTC2 319-541)
[2] = target: SARS-CoV-2 S蛋白 (Omicron变异株, 假病毒) (SARS-CoV-2 Omicron variant, UniProt P0DTC2 14-1273); test: cell-based or functional assay
[3] = target: SARS-CoV-2 S蛋白 (Delta变异株, 假病毒) (SARS-CoV-2 Delta variant, UniProt P0DTC2 14-1273); test: cell-based or functional assay

Binder	Kd [1] [pM]	假病毒中和能力(IC50) [2] [µg/mL]	假病毒中和能力(IC50) [3] [µg/mL]
LHD2 (antibody, V domains shown) VH: QMQLVQSGPEVKKPGTSLKVSCKASGFAFTTSAVQWVRQARGQPLEWIGWIAVGSGKADYAQRFQERVTISRDMSTTTAYMELSSLSSEDTAVYFCAAPFCTRTTCLDGFDIWGQGTMVTVSS VL: EIVLTQSPVTLSLSPGERATLSCRAGQSVSRNYLGWYQQKPGQAPRLLIYAASSRATGIPDRFSGRGSGTDFTLTISRLEPEDFAVYYCQQYGTSPWTFGQGTKVEIKV	< 1	0.045	0.005
LHD7 (antibody, V domains shown) VH: QMQLVQSGPEVKKPGTSVKVSCKASGFTFITAAVQWVRQARGQRLEWIGWIAVGSGKTDYAQKFQERVTITRDISTSTAYMEVKSLRSEDTALYYCAAPQCNRTTCLDGFDIWGQGTKVIVSS VL: EIVLTQSPVTLSLSPGERATLSCRASQSVSRSYLGWYQQKPGQAPRLLIYGASSRATGIPDRFRGSGSGTDFTLTISRLEPEDFAVYYCQQYGTSPWTFGQGTKVEIKV	< 1	0.025	0.008
SWB8 (antibody, V domains shown) VH: EVQLVESGGGLVQPGGSLRLSCAASGFTIRSYEMNWVRQAPGKGLEWVSYISSSGTTIYYADSVKGRFTISRDTAKNSLYLQMNSLRAEDTAVYYCAREGDYPSAEYFHHWGQGTLVTVSS VL: DIVMTQSSVSLAVSLGERATINCKSSQSVLYSSTNRSYLAWYQQKPGQSPKLLIYWASTRESGVPDRFSGSGSGTDFTLTISSLQAEDVAVYYCQQYYSTRRTFGQGTKLEIKR	< 1	0.032	0.018
LHC11 (antibody, V domains shown) VH: EVQLVESGGGLIQPGGSLKLSCAATEIIVSRNYMTWVRQAPGKGLEWVSIIYPGGSSFYAESVKGRFTISRDEPKNTLFLQMNSLRVEDTAVYYCARGYGDYYFDFWGQGTLVTVSS VL: EIVLTQSPVTLSLSPGERATLSCRASQSVSSSYLAWYQQKPGQAPRLLIYGASSRATGIPDRFSGSGSGTDFTLTISRLEPEDFAVYYCQQWLTFGGGTKVEIKV	960	0.024	0.027
